What all share (assay): FP
In assay [1] the target is T1, FBXO31/SKP1 complex (wild type) (human, UniProt Q5XUX0).
For assay [2], the target named is T1, FBXO31/SKP1 complex (wild type). This is another data set of the same source.
The target in the next assay is FBXO31 D334N/SKP1 (human, UniProt Q5XUX0).

Values joined by “and” are separate entries in the source; they are usually repeats but may differ in a detail not shown here. Equal entries are not always repeated. FL = fluorescein (N-terminal fluorescent label)

T1 sequence (Q5XUX0 whole entry, chain 1 of 2): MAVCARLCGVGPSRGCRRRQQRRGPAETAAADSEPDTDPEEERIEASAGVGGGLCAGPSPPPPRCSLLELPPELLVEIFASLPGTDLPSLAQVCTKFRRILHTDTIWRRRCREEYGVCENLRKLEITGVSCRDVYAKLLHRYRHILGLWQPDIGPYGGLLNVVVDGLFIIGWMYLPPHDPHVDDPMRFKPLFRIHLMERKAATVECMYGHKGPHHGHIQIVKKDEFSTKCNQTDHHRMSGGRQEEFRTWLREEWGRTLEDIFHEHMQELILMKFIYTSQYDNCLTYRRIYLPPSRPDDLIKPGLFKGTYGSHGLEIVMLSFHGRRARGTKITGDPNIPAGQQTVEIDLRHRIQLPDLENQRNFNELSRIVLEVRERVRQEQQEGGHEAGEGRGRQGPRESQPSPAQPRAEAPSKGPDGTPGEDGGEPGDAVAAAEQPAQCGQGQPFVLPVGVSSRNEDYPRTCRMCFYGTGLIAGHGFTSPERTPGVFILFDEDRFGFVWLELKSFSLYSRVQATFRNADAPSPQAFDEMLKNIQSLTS
T1 sequence (chain, as listed by the source, chain 2 of 2): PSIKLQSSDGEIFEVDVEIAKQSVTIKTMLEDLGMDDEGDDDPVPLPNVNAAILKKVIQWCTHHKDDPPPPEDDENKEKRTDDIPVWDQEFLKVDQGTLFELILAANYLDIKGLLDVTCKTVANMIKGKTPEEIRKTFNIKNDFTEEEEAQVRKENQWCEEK
Sequence of FBXO31 D334N/SKP1 (Q5XUX0 whole entry D334N, chain 1 of 2): as the sequence (Q5XUX0 whole entry, chain 1 of 2) above, with D334N counted along it
Sequence of FBXO31 D334N/SKP1 (chain, as listed by the source D334N, chain 2 of 2): as the sequence (chain, as listed by the source, chain 2 of 2) above

{FL}-KEEDEKGSRASDDFRDLR-OH [FL-Pep2-OH (non-amidated model peptide)]: in assay [1], the binding result was “no binding”.

Consider {FL}-KEEDEKGSRASDDFRDLR-NH2 [FL-Pep2-NH2 (amidated model/screening peptide)], for which the Kd in assay [2] was 22 nM and 16 nM.

Consider {FL}-KAATPTDVRDVDI-OH [FL-CycD1-OH], for which the binding result (in the assay with FBXO31 D334N/SKP1; in assay [1]) was “no binding” throughout.

On to {FL}-KAATPTDVRDVDI-NH2 [FL-CycD1-NH2], for which, in assay [2], the equilibrium dissociation constant (Kd) worked out at 59 nM.

The Kd is the equilibrium constant for the complex coming apart.
